# Results as given in the nanobody polyreactivity screen of Harvey et al. (2022).
# Assay: yeast display, Sf9 membrane polyspecificity reagent, FACS + sequencing; frameworks hold sequencing errors
# Summary of the method: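 Polyreactivity labels are assigned by the sorting gate from which each nanobody was recovered. The gates were low and high (top ~1%), set on anti-HA fluorescence for expression and streptavidin fluorescence for reagent binding. Before sorting, galactose-induced (36–48 hours) yeast display cells were stained for 1 hour at 4 °C with 10% biotinylated, detergent-solubilized Sf9 membrane reagent.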
row,Sequence,polyreactivity (PSR sort gate)
1,QVQLVESGGGLVQAGGSLRLSCAASGFIFRQDAMGWYRQAPGKERELVAAISWRGGSTYYADSVKGRFTISRDNAKNTEYLQMNSLKPEDTAVYYCATRQTKYSNYRGDYWGQGTQVTVST,high polyreactivity
2,QVQLVESGGGLVQAGGSLRLSCAASGFIFRQYAMGWYRQAPGKERELVAAISWSGGSTYYADSVKGRFTISRDNAKNTVYLQMNSLKPEDTAVYYCNVLTPPTDYDYWGQGTQVTVSS,high polyreactivity
3,QVQLVESGGGLVQAGGSLRLSCAASGFIFRRNAMGWYRQAPGKERELVAAISRSGGRTYYADSVKGRFTISRDNAKNTVYLQMNSLKPEDTAVYYCAAEYTDKYEYWGQGTQVTVSS,high polyreactivity
4,QVQLVESGGGLVQAGGSLRLSCAASGFIFRRYAMGWYRQAPGKERDLVAAIRSDRSTNYADSVKGRFTISLDNAKNTVYLQMNSLKPEDTAVYYCARPYRSHYGWGVRGFDYWGQGTQVTVSS,high polyreactivity
5,QVQLVESGGGLVQAGGSLRLSCAASGFIFRRYAMGWYRQAPGKERELVAAISWRSGSTYYADSVKGRFTISRDNAKNTVYLQMNSLKPEDTAVYYCAAKDQATYQLNYWGQGTQVTVSS,high polyreactivity
6,QVQLVESGGGLVQAGGSLRLSCAASGFIFRSYAMGWYRPAPGKERELVAAITKSGGRTYYADSVKGRFTISRDNAKNTVYLQMNSLKPEDTAVYYCAADQTSYSTSRRYDYWGQGTQVTVSS,high polyreactivity
7,QVQLVESGGGLVQAGGSLRLSCAASGFIFRSYAMGWYRQAPGKERELVAAITSGGRTFYADSVKGRFTISRDNAKNTVYLQMNSLKPEDTAVYYCAAGGYRTGFNYWGQGTQVTVSS,high polyreactivity
8,QVQLVESGGGLVQAGGSLRLSCAASGFIFRTYAMGWYRQAPGKEREFVAAISSGSSTYYADSEKGRFTISRDNANNSVYLQMISLKPEDTAVYYCAARVPQQSRTWRGSTRSYRYGYWGQGTQVTVSS,high polyreactivity
9,QVQLVESGGGLVQAGGSLRLSCAASGFIFRTYAMGWYRQAPGTERELVATITGDGSTNYADSVKGRFTISRDNAKNTVYLQMNSLKPEDTAVYYCSRDDRLAGDYWGQGTQVTVSS,low polyreactivity
10,QVQLVESGGGLVQAGGSLRLSCAASGFIFRVNAMGWYRQAPGKEREFVAAITYSGGRTSYADSVKGRFTISRDNAKNTVYLQMNSLKPEDTAVYYCAALLYKPSVHAKYYYWGQGTQVTVSS,high polyreactivity
11,QVQLVESGGGLVQAGGSLRLSCAASGFIFRYAMGWYRQAPGKERELVAAISSSGGSTNYADSVKGRFTISRDNAKNTVYLQMNSLKPEDTAVYYCAARDGRQPRGYRLVTYYAPMYYWGQGTQVTVSS,high polyreactivity
12,QVQLVESGGGLVQAGGSLRLSCAASGFIFRYNAMAWYRQAPGKERELVAAIDSGGSTYYADSVKGRFTISRDNAKNTVYLQMNSMKPEDNAVYYCNAVVEASYPCVDYWGQGTQVTVSS,low polyreactivity
13,QVQLVESGGGLVQAGGSLRLSCAASGFIFRYYAMGRYRQAPGKERELVAAISYSGGSTYYADSVKGRFTFSRDNAKNTVYLQINSMKPEDTAVYYCAKYTTSVYKQSLQQGYDYWGQGTQVSVSS,high polyreactivity
14,QVQLVESGGGLVQAGGSLRLSCAASGFIFRYYAMGWYRQAPGKEREFVAAISRSGSSTYYADSVKGRFTISRDNAKNTVYLQMNSLKPEDTAVYYCNARKYRKGYGYWGQGTQVTVSS,high polyreactivity
15,QVQLVESGGGLVQAGGSLRLSCAASGFIFRYYAMGWYRQAPGKERELVAAISGNGGNTYYADSVKGRFTISRDNAKNTVYLQMNSLKPEDTAVYNCNRAPGYRGGRYDYWGQGTQVTVSS,high polyreactivity
16,QVQLVESGGGLVQAGGSLRLSCAASGFIFRYYAMGWYRQAPGKERELVAAISGSGGGTYYADSVKGRFTISRDNAKNTVYLQMNSLKPEDTAVYYCAAGSTSGYFRYYYWGQGSQVTVSS,high polyreactivity
17,QVQLVESGGGLVQAGGSLRLSCAASGFIFRYYAMGWYRQAPGKERELVAAISRSGGSTYYADSVKGRFTISRDNAKNTVYLQMNSLKPEDTAVYYCNKDPRGRIPVPGTWIMDYWGQGTQVTVSS,high polyreactivity
18,QVQLVESGGGLVQAGGSLRLSCAASGFIFRYYAMGWYRQAPGKERELVAAISSSGGCTYYADSVKGRFTISRDNSKNTVYLLMNRMKPEDTAVYFCAARDLRKLFSLYPYYYWGQGTHVTVSS,high polyreactivity
19,QVQLVESGGGLVQAGGSLRLSCAASGFIFRYYAMGWYRQAPGKERELVAAISWSGGSTYYADSVKGRFTISRDNAKNTVYLQMNSLKPEDTAVYYCNAVTTYGEYDYWGQGTQVTVSS,high polyreactivity
20,QVQLVESGGGLVQAGGSLRLSCAASGFIFRYYAMGWYRQAPGKERELVAAISYSGGYTYYADSVKGRFTISRDNAKNTVYLQMNSLKPEDTAVYYCAAVLRTRDHPQPNYEYWGQGTQVTVSS,high polyreactivity
21,QVQLVESGGGLVQAGGSLRLSCAASGFIFRYYAMGWYRQAPGKERELVAAITNSGVSTYYADSVKGRFTISRDNAKNTVYLQMNSLKPEDTAVYYCAATYRTRTSQYDYWGQGTQVTVSS,high polyreactivity
22,QVQLVESGGGLVQAGGSLRLSCAASGFIFRYYAMGWYRQAPGKERELVATISSGGGTHYADSVKGRFTISRDNAKNTVYLQMNCLKPEDTAVYYCNKVSYRRRSVLLHYDYWGQGTQVTVSS,high polyreactivity
23,QVQLVESGGGLVQAGGSLRLSCAASGFIFRYYAMGWYRQAPWKERELVASITRSGGRTYYADSVKGRFTISRDNAKNTVYLQMNSLKPEDTAVYYCAARHYRSEYEYDYWGQGTQVTVSS,high polyreactivity
24,QVQLVESGGGLVQAGGSLRLSCAASGFIFRYYARGWYRQGPGKERELVAAIDESGGSTYYADSVKGSFTISRDNSKKTVYLQMNSLKAVDTEVYYCAAYSNFYLNYGYGYWGQVTQVTVSS,high polyreactivity
25,QVQLVESGGGLVQAGGSLRLSCAASGFIFRYYTMGWYRQAPGKERELVATITSGGSTYYADSVKGRFTISRDNAKNTVYVQMNSLKPEDTAVYYCAKVRDVLWRFNYWGQGTQVTVSS,high polyreactivity
26,QVQLVESGGGLVQAGGSLRLSCAASGFIFSANAMGWYRQAPGKERELVAVISWNGDGTYYADSVKGRFTISRDNAKNTVYLQMNSLKAEDTAVYYCAALSYAYRSQSRRYGYRFDYWGQGTQVTVSS,high polyreactivity
27,QVQLVESGGGLVQAGGSLRLSCAASGFIFSAYVMGWYRQAPGKERELVAAISQSGARTYYADSVKGRFTISRDNAKNTVYLQMNSLKPEDTAVYYCAADRRDFRTYDYWGQGTQVTVSS,high polyreactivity
28,QVQLVESGGGLVQAGGSLRLSCAASGFIFSCYAMGWYRQAPGKERELFAAISSSGVSTYYADSVKGRFTISRDNAKNTVYLHMNSLKPEDTAVNYCNAYGSVWDRGEYDYEYWGQGTQVTVSS,low polyreactivity
29,QVQLVESGGGLVQAGGSLRLSCAASGFIFSDNAMGWYRQAPGKERELVSAITDDGDTTYYADSVKGRFTISRDNAKNTVYLQMNSLKPEDTAVYYCATEIEDDESSGPYYYVGYGYWGQGTQVTVSS,high polyreactivity
30,QVQLVESGGGLVQAGGSLRLSCAASGFIFSGNAMGWYRQAPGKERELVATITTGGTTKYADSVKGRFTISRDNAKNTVYLQMNSLKPEDTAVYYFAKSWSYWYQYYYWGQGTQVTVSS,low polyreactivity
